Data on nine molecules can be found in patent US20170240635A1 (AGENCY FOR SCIENCE TECHNOLOGY AND RESEARCH, published 2017).

Broadly, the Kd is the free concentration of one partner at which half of the binding sites on the other are occupied at equilibrium, for simple one-to-one binding. The low end stands for higher affinity, the high end for lower affinity.

Where a chain is given by its changes, count along the chain named.

Assay [1] has as its target T1, human PD-1 coupled to human Fc (human, UniProt Q15116 25-167, limits assumed).
T1 construct: also called human-PD-1 coupled to Fc; not shown: human Fc
Put plainly: SPR (ProteOn XPR36); human PD-1-Fc immobilised, crude Fab extract flown over. Here is the method:
Briefly, human or mouse PD-1 coupled to human Fc was immobilised on a sensor chip compatible with the Proteon XPR36 bioanalyser (Biorad). Crude Fab extracts (or the control antibodies) were then flown onto the chip and the association/dissociation of each candidate Fab was then recorded and analysed, the affinity (KD) was calculated.

Assay [2] has as its target T2, hCTLA4-Fc (human, UniProt P16410).
T2 construct: also called human CTLA-4; human CTLA4
Put plainly: ELISA; antigen coated 350 ng/well, goat anti-human Fab-HRP, absorbance 450-670 nm. The procedure: (§1) Anti-PD-1 antibodies were tested in an ELISA assay for their ability to bind to other members of the CD28 family.
(§2) Briefly, ELISA plates were coated with 350 ng/well of one of the following antigens coupled to human Fc in carbonate buffer: human PD-1, human PD-L1, human TIM-3, human LAG-3, human ICOS, human CTLA4, human BTLA, human CD28, mouse TIM-3, or rhesus PD-1. The plate was then blocked with a solution of casein. After extensive washes in PBS Tween-20, antibodies were added into the ELISA wells in the presence of 7% milk in PBS. After 90 minutes at room temperature under agitation and extensive washes, a goat anti-human Fab antibody coupled to HRP was added. One hour later, plates were washed and TMB substrate added. The reaction was stopped with 1M HCl and optical density measured at 450 nm with a reference at 670 nm.
(In general: An ELISA detects its analyte on a solid surface through an enzyme-linked reagent.)

In a further assay the target is T3, hICOS-Fc (human, UniProt Q9Y6W8).
T3 construct: also called human ICOS
T3 sequence (antigen, looked up): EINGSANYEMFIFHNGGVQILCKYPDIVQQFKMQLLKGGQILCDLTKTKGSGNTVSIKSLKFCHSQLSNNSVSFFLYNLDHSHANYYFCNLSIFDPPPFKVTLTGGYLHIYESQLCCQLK
The assay is described as above. The procedure:
as §1, §2

The next assay has as its target T4, mTim3-Fc (mouse, UniProt Q8VIM0).
T4 construct: also called mouse TIM-3
Described as above. The procedure:
as §1, §2

Assay [3] concerns the target T5, human PD-L1 coupled to human Fc (human, UniProt Q9NZQ7 19-239, limits assumed).
T5 construct: ELISA coating antigen; not shown: human Fc
Described as above. The procedure: as §1, §2

Assay [4] deals with T6, human TIM-3 coupled to human Fc (human, UniProt Q8TDQ0 22-200, limits assumed).
T6 construct: not shown: human Fc
The description is as above. The procedure:
as §1, §2

In assay [5] the target is T7, human LAG-3 coupled to human Fc (human, UniProt P18627 23-450, limits assumed).
T7 construct: ELISA coating antigen; not shown: human Fc
T7 sequence (looked up): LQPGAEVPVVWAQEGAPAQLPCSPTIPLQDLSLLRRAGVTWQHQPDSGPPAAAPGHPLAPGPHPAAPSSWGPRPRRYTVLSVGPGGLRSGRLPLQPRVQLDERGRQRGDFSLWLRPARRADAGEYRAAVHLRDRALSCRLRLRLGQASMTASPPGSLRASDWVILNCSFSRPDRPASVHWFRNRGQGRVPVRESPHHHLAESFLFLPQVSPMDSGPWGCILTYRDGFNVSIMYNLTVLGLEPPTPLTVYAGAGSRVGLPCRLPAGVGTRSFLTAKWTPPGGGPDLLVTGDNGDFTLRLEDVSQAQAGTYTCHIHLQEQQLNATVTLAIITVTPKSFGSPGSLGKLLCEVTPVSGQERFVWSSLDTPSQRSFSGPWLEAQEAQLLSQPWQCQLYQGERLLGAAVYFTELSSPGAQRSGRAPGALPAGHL
The assay is described as above. The procedure: as §1, §2

Assay [6] concerns the target T8, human BTLA coupled to human Fc (human, UniProt Q7Z6A9 31-150, limits assumed).
T8 construct: ELISA coating antigen; not shown: human Fc
The description is as above. Here is the method:
as §1, §2

Assay [7] concerns the target T9, human CD28 coupled to human Fc (human, UniProt P10747 19-152, limits assumed).
T9 construct: ELISA coating antigen; not shown: human Fc
The assay is described as above. The procedure: as §1, §2

The target in assay [8] is T2, hCTLA4-Fc. As to the kind of experiment: ELISA; antigen coated 350 ng/well, Fab-containing supernatant, goat anti-human Fab-HRP, absorbance 450-670 nm.

T2 sequence (P16410 37-162 limits assumed): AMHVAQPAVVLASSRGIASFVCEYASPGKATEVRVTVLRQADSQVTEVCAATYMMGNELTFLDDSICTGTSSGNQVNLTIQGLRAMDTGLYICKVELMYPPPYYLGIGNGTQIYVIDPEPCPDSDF
T4 sequence (Q8VIM0 20-191 limits assumed): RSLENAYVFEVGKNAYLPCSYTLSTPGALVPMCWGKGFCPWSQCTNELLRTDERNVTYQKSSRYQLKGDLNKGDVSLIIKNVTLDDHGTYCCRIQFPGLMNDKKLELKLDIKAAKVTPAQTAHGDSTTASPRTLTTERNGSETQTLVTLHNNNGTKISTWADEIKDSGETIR
T5 sequence (Q9NZQ7 19-239 limits assumed): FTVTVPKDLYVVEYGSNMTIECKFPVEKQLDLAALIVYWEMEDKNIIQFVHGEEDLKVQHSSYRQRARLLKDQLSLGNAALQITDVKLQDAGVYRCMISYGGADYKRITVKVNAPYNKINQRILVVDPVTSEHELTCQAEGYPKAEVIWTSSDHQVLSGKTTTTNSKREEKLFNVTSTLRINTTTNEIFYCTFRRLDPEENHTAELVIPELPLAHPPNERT
T1 sequence (Q15116 25-167 limits assumed): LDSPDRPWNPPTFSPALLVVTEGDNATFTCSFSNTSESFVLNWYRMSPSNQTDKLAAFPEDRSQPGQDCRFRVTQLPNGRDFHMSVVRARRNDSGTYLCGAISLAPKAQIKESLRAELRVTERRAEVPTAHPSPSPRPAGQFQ
T8 sequence (Q7Z6A9 31-150 limits assumed): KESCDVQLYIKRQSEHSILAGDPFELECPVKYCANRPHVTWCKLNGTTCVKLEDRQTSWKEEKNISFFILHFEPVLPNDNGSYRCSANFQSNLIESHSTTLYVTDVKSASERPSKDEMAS

B1: anti-PD-1 antibody clone A10 (Fab) (Fab, V domains shown)
VH: QVQLVQSGGGVVQPGRSLRLSCAASGFTFSSYGMHWVRQAPGKGLEWVAVISYDGSNKYYADSVKGRFTISRDNSKNTLYLQMNSLRAEDTAVYYCASDLGAGPYYYGKDVWGQGTTVTVSS
VL: LPVLTQPPSASGTPGQRVTISCSGSSSNIKFNSVNWYQQLPGTAPKLLIYSNNQRPSGVPDRFSGSKSGTSASLAISGLQSEDEADYFCASWDDYYYGTIFGGGTKLTVL
notes: Crude Fab extract in SPR
Molecule B1 showed a Kd in assay [1] of 0.08 nM. In addition, the binding result (with hCTLA4-Fc [2]; in the assay with hICOS-Fc; in the assay with mTim3-Fc; in assay [3]; in assay [4]; in assay [5]) was “no binding (tested: not given)” in each case. The binding result in assay [6] and in assay [7] was “no binding (tested: not given)” throughout.

B2: anti-PD-1 antibody clone F2 (Fab) (Fab, V domains shown)
VH: B1 VH with Q6E, K109M
VL: B1 VL with L1Q, P2S, F88Y, A90S, Y95D, Y96A, Y97R
notes: Crude Fab extract in SPR
In assay [1], B2 displayed a Kd of 0.11 nM. Besides, the binding result (with hCTLA4-Fc [2]; with hICOS-Fc; in the assay with mTim3-Fc; in [3]; in assay [4]; in assay [5]) was “no binding (tested: not given)” in each case. Besides, the binding result in assay [6] and in assay [7] was “no binding (tested: not given)” throughout.

B3: anti-PD-1 antibody clone B6 (Fab) (Fab, V domains shown)
VH: B1 VH with Q6E, L100Y, K109M
VL: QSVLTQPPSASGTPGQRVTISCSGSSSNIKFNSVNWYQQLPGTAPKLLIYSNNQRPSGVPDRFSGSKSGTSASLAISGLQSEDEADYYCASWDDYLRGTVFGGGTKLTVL
notes: Crude Fab extract in SPR
B3 came in with a Kd in assay [1] of 0.26 nM. Besides, the binding result (with hICOS-Fc; with mTim3-Fc; in assay [3]; in [4]; in assay [5]; in [6]) was “no binding (tested: not given)” each time. In addition, the binding result (in [7]; with hCTLA4-Fc [8]) was “no binding (tested: not given)” each time.

B4: anti-PD-1 antibody clone C4 (Fab) (Fab, V domains shown)
VH: B1 VH with Q6E, K109L
VL: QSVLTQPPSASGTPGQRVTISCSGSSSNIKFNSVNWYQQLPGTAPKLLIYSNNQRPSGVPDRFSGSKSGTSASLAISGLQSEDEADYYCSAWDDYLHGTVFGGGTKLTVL
notes: Crude Fab extract in SPR
Regarding B4, in assay [1], the Kd was 0.4 nM. The binding result (with hICOS-Fc; in the assay with mTim3-Fc; in assay [3]; in assay [4]; in [5]; in assay [6]) was “no binding (tested: not given)” each time. Besides, the binding result (in [7]; in the assay with hCTLA4-Fc [8]) was “no binding (tested: not given)” in each case.

B5: anti-PD-1 antibody clone D4 (Fab) (Fab, V domains shown)
VH: B1 VH with Q6E, K109M
VL: B1 VL with L1Q, P2S, F88Y, Y96V, Y97R, I100M
notes: Crude Fab extract in SPR
For the molecule B5, the Kd in assay [1] was found to be 0.22 nM. Further, the binding result (with hICOS-Fc; in the assay with mTim3-Fc; in [3]; in assay [4]; in [5]; in assay [6]) was “no binding (tested: not given)” in each case. The binding result (in assay [7]; with hCTLA4-Fc [8]) was “no binding (tested: not given)” throughout.

B6: anti-PD-1 antibody clone H4 (Fab) (Fab, V domains shown)
VH: B1 VH with Q6E, A102S, P104Y, Y106L, K109M
VL: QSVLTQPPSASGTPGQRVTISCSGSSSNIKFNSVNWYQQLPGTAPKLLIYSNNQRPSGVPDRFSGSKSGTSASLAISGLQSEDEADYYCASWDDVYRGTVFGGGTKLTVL
notes: Crude Fab extract in SPR
On to B6, for which the affinity in assay [1], expressed as Kd, was 0.27 nM. Moreover, the binding result (with hCTLA4-Fc [2]; with hICOS-Fc; with mTim3-Fc; in assay [3]; in assay [4]; in assay [5]) was “no binding (tested: not given)” in each case. Also, the binding result in assay [6] and in [7] was “no binding (tested: not given)” in each case.

B7: anti-PD-1 antibody clone E1 (Fab) (Fab, V domains shown)
VH: B1 VH with Q6E, K109M
VL: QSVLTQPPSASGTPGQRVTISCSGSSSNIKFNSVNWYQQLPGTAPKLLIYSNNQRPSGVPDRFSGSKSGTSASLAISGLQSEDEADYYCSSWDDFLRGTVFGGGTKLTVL
notes: Crude Fab extract in SPR
For the molecule B7, in [1], the Kd was found to be 0.21 nM. For the same molecule, the binding result (in the assay with hICOS-Fc; in the assay with mTim3-Fc; in [3]; in assay [4]; in [5]; in [6]) was “no binding (tested: not given)” each time. Further, the binding result (in assay [7]; with hCTLA4-Fc [8]) was “no binding (tested: not given)” each time.

B8: anti-PD-1 antibody clone G10 (Fab) (Fab, V domains shown)
VH: B1 VH with Q6E, L100Y, K109M
VL: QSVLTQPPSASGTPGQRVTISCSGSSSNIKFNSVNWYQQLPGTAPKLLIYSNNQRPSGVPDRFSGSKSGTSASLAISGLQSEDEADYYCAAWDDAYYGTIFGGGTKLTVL
notes: Crude Fab extract in SPR
The molecule B8 yielded a Kd in [1] of 0.27 nM. Besides, the binding result (in the assay with hICOS-Fc; in the assay with mTim3-Fc; in [3]; in assay [4]; in assay [5]; in assay [6]) was “no binding (tested: not given)” each time. Moreover, the binding result (in assay [7]; with hCTLA4-Fc [8]) was “no binding (tested: not given)” each time.

B9: anti-PD-1 antibody clone G1 (Fab) (Fab, V domains shown)
VH: B1 VH with Q6E, K109M
VL: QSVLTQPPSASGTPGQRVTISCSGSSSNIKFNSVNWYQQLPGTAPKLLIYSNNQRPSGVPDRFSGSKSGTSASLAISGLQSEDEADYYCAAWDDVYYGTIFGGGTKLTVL
notes: Crude Fab extract in SPR
In assay [1], B9 came in with a Kd of 0.1 nM. Besides, the binding result (in the assay with hCTLA4-Fc [2]; with hICOS-Fc; with mTim3-Fc; in assay [3]; in [4]; in assay [5]) was “no binding (tested: not given)” in each case. Besides, the binding result in assay [6] and in assay [7] was “no binding (tested: not given)” in each case.
